# In patent US20230212554A1 (published 2023):
# Where a chain is given by its changes, count along the chain named.
# B1: NP10 (antibody, V domains shown)
# VH: EVQLVESGGGLVQPGGSLRLSCAASGFTIDNGSIHWVRQAPGKGLEWVAWIWPFGGSTSYADSVKGRFTISADTSKNTAYLQMNSLRAEDTAVYYCARSWSSGYDYWGQGTLVTVSS
# VL: DIQMTQSPSSLSASVGDRVTITCRASQDVSWSVAWYQQKPGKAPKLLISGSTWLYSGVPSRFSGSGSGTDFTLTISSLQPEDFATYYCQQYSNSPITFGQGTKVEIKR
# B2: NP11 (antibody, V domains shown)
# VH: EVQLVESGGGLVQPGGSLRLSCAASGFTIDSYGIHWVRQAPGKGLEWVAWIGPSGGSTFYADSVKGRFTISADTSKNTAYLQMNSLRAEDTAVYYCARGYFWFFDYWGQGTLVTVSS
# VL: B1 VL with W31S, S32W, G50W, T52G, W53Y, Y91G, S92F, S94Y, I96L
# B3: NP13 (antibody, V domains shown)
# VH: EVQLVESGGGLVQPGGSLRLSCAASGFTINNYGIHWVRQAPGKGLEWVASIGPYGGSTYYADSVKGRFTISADTSKNTAYLQMNSLRAEDTAVYYCARFGYFNWLDMDYWGQGTLVTVSS
# VL: DIQMTQSPSSLSASVGDRVTITCRASQDVGYWVAWYQQKPGKAPKLLISSASGLYSGVPSRFSGSGSGTDFTLTISSLQPEDFATYYCQQGWDWPITFGQGTKVEIKR
# B4: NP12 (antibody, V domains shown)
# VH: EVQLVESGGGLVQPGGSLRLSCAASGFTIDNGYIHWVRQAPGKGLEWVASIWPSWGSTYYADSVKGRFTISADTSKNTAYLQMNSLRAEDTAVYYCARGFYYYGDYWGQGTLVTVSS
# VL: B3 VL with Y31G, W32N, A51T, S52A, G91Y, W92Y, W94F, I96L
# B5: NP4 (antibody, V domains shown)
# VH: EVQLVESGGGLVQPGGSLRLSCAASGFTISNSSIHWVRQAPGKGLEWVAGIGPSGGYTFYADSVKGRFTISADTSKNTAYLQMNSLRAEDTAVYYCARFHSHNSYYSYSHYGYMDYWGQGTLVTVSS
# VL: B1 VL with S30G, S32G, S51P, T52S, W53S, S92F, S94Y
# B6: NP9 (antibody, V domains shown)
# VH: EVQLVESGGGLVQPGGSLRLSCAASGFTINNGWIHWVRQAPGKGLEWVAGIGPYWGFTSYADSVKGRFMISADTSKNTAYLQMNSLRAEDTAVYYCARFDSDHDHHYSYYYYYDNGYMDYWGQGTLVTVSS
# VL: B1 VL with S30W, W31F, S49Y, S51T, W53S, S92F, S94Y, I96L
# B7: NP14 (antibody, V domains shown)
# VH: EVQLVESGGGLVQPGGSLRLSCAASGFTIDNGGIHWVRQAPGKGLEWVASIWPSWGSTSYADSVKGRFTISADTSKNTAYLQMNSLRAEDTAVYYCARFNFGVFGVMDYWGQGTLVTVSS
# VL: B1 VL with S30D, W31N, S32D, S49Y, S51P, T52R, W53G, N93S, S94W, I96L
# B8: NP5 (antibody, V domains shown)
# VH: EVQLVESGGGLVQPGGSLRLSCAASGFTISNGSIHWVRQAPGKGLEWVAGIWPSGGSTSYADSVKGRFTISADTINNSAYLQMNSLRAEDTAVYYCARWNYWGQGTLVTVSS
# VL: B1 VL with S30G, S49Y, T52R, Y91G, S92Y, S94G, I96L
# B9: NP7 (antibody, V domains shown)
# VH: EVQLVESGGGLVQPGGSLRLSCAASGFTISNGGIHWVRQAPGKGLEWVAGIGPYGGFTSYADSVKGRFTISADTSKNTAYLQMNSLRAEDTAVYYCARFYSNYYGYHGVMDYWGQGTLVTVSS
# VL: B1 VL with S30F, W31G, S32W, G50Y, T52A, W53S, S92F, S94Y, I96L
# B10: NP21 (antibody, V domains shown)
# VH: EVQLVESGGGLVQPGGSLRLSCAASGFTINGYGIHWVRQAPGKGLEWVAGIWPYGGSTFYADSVKGRFTISADTSKNTAYLQMNSLRAEDTAVYYCARFYNNHGGIMDYWGQGTLVTVSS
# VL: B1 VL with S30Y, W31F, S32Y, S49Y, T52R, S94F, I96V
# B11: NP8 (antibody, V domains shown)
# VH: EVQLVESGGGLVQPGGSLRLSCAASGFTINSFGIHWVRQAPGKGLEWVAGIGPFGGSTFYADSVKGRFTISADTSKNTAYLQMNSLRAEDTAVYYCARGFYWFDYWGQGTLVTVSS
# VL: DIQMTQSPSSLSASVGDRVTITCRASQDVDDSVAWYQQKPGKAPKLLIYWTRYLYSGVPSRFSGSGSGTDFTLTISSLQPEDFATYYCQQGYNYPLTFGQGTKVEIKR
# B12: NP19 (antibody, V domains shown)
# VH: EVQLVESGGGLVQPGGSLRLSCAASGFTISSWGIHWVRQAPGKGLEWVAGIGPFWGYTSYADSVKGRFTISADTSKNTAYLQMNSLRAEDTAVYYCARFGVDNYGYMDYWGQGTLVTVSS
# VL: B1 VL with W31G, S32W, G50W, W53G, S92F, S94F, I96V
# B13: NP3 (antibody, V domains shown)
# VH: B10 VH with N30S, G31N, Y54F, S57F, F59S, Y100H, N101W, H103D, G104H, I106Y
# VL: B11 VL with D30G, D31W, S32Y, W50S, R52T, Y53G, G91Y, L96I
# B14: NP15 (antibody, V domains shown)
# VH: EVQLVESGGGLVQPGGSLRLSCAASGFTISNWYIHWVRQAPGKGLEWVAGIGPYGGSTYYADSVKGRFTISADTSKNTAYLQMNSLRAEDTAVYYCARFHWDHLHGMDYWGQGTLVTVSS
# VL: B1 VL with S30D, W31N, S32N, G50Y, W53G, S92W, S94Y
# B15: NP25 (antibody, V domains shown)
# VH: B4 VH with D30G, N31G, Y33F, S54Y, S57F, F100S, Y102G, G104S
# VL: B11 VL with S26G, D30S, D31S, S32G, Y49S, R52S, Y53F, G91Y, N93D, L96I
# B16: NP22 (antibody, V domains shown)
# VH: B4 VH with D30S, N31D, G32W, Y33S, S50G, S54Y, Y59S, Y102S, Y103W, G104F
# VL: B3 VL with G30F, Y31S, G53S, G91S, W94Y
# B17: NP24 (antibody, V domains shown)
# VH: B2 VH with S31D, Y32W, G33Y, W50G, S54Y, S57F, F59Y, F101Y, W102G, F103S
# VL: B3 VL with Y31S, W32S, S49F, S50Y, A51T, G53S, W94S, I96V
# B18: NP2 (antibody, V domains shown)
# VH: EVQLVESGGGLVQPGGSLRLSCAASGFTIGGGGIHWVRQAPGKGLEWVAGIWPYWGYTFYADSVKGRFTISADTSKNTAYLQMNSLRAEDTAVYYCARFWHGNLDVMDYWGQGTLVTVSS
# VL: B1 VL with S30Y, W31G, S32Y, S49Y, S51A, T52A, W53G, S94F, I96L
# B19: NP23 (antibody, V domains shown)
# VH: EVQLVESGGGLVQPGGSLRLSCAASGFTISNYFIHWVRQAPGKGLEWVASIGPFGGFTSYADSVKGRFTISADTSKNTAYLQMNSLRAEDTAVYYCAGYGFHYWGQGTLVTVSS
# VL: B11 VL with S32G, Y49S, W50G, T51A, Y53W, G91Y, Y94F
# B20: NP20 (antibody, V domains shown)
# VH: B19 VH with S30N, N31G, F33S, F54Y, S59Y, Y99F, H102Y
# VL: B3 VL with W32G, S50G, G91Y, W92S, D93S, W94F, I96L
# Molecular target: T1, NPA4 (influenza A virus …, UniProt A8C8J8 1-489)
# Test: ELISA on recombinant NP
row,Binder,binding result
1,B1,no binding

# Molecular target: NPA5 (influenza A virus A/Anhui/1/2005 …, UniProt Q6DPE5 1-489)
# Test: ELISA on recombinant NP
row,Binder,EC50
1,B2,0.06 nM
2,B3,0.09 nM
3,B4,9.07 nM
4,B5,0.37 nM
5,B6,1.12 nM
6,B7,1.7 nM
7,B1,0.28 nM

# Molecular target: NPA2 (influenza A virus A/WSN/1933(H1N1), UniProt A4U6V6 1-489)
# Test: ELISA on recombinant NP
row,Binder,EC50
1,B2,0.27 nM
2,B8,0.13 nM
3,B9,0.79 nM
4,B10,28.6 nM
5,B7,0.08 nM
6,B11,2.14 nM

# Molecular target: T2, NPA1 (influenza A virus A/Taiwan/1/72 (H3N2), UniProt P16982 1-489)
# T2 chain: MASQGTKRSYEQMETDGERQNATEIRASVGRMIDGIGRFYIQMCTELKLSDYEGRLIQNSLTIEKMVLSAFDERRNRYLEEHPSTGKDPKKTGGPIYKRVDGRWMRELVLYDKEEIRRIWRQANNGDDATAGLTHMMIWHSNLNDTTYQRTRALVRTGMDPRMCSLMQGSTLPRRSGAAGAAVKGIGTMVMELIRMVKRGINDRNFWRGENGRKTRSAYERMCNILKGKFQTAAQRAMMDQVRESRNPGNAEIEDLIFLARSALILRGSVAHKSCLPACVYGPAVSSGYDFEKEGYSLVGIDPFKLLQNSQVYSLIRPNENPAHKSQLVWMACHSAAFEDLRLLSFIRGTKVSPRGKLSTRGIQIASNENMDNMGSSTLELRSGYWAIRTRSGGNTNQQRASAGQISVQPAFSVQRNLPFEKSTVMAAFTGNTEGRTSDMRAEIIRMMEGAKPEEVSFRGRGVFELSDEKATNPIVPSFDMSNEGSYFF
# Test: ELISA on recombinant NP
row,Binder,EC50
1,B5,0.19 nM
2,B12,0.11 nM
3,B10,0.12 nM
4,B7,0.19 nM
5,B13,0.09 nM
6,B1,0.36 nM

# Molecular target: T1, NPA4
# Test: ELISA on recombinant NP
# Remark: another data set of the same source
row,Binder,EC50
1,B3,0.07 nM
2,B14,0.35 nM

# Molecular target: T3, NPB1 (influenza B virus B/Houston/B720/2004, UniProt O36433 1-548)
# T3 chain: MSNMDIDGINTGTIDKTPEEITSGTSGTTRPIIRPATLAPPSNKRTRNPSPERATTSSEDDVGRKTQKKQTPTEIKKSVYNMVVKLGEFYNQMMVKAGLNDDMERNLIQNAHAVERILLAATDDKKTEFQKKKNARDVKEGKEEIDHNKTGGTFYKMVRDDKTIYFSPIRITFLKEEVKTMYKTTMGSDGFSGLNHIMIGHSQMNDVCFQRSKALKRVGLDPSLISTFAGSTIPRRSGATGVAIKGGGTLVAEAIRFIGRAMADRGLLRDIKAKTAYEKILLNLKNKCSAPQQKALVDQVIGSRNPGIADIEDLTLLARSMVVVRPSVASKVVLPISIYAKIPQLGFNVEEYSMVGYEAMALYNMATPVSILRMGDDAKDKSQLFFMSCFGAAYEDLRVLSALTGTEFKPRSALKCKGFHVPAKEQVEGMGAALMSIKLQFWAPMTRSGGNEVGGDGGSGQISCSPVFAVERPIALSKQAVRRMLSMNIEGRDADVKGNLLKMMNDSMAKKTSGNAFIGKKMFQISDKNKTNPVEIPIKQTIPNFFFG
# Test: ELISA on recombinant NP
row,Binder,EC50
1,B15,0.1 nM
2,B16,0.27 nM
3,B17,0.05 nM
4,B18,1.37 nM
5,B19,0.06 nM
6,B20,0.04 nM
